1 molecule from patent US20250302761A1 (INSTITUT NATIONAL DE LA SANT ET DE LA RECHERCHE M DICALE, published 2025) can be followed below.

This experiment concerns the target FKBP2-RFP-CD63. As to the kind of experiment: cell-based or functional assay.

B1: FRB-NanoLuciferase-HA (other)
chain: ILWHEMWHEGLEEASRLYFGERNVKGMFEVLEPLHAMMERGPQTLKETSFNQAYGRDLMEAQEWCRKYMKSGNVKDLLQAWDLYYHVFRRISK
B1: the “EV NLuc specific activity, normalized on the 'No Drug' condition” value was 3.5 fold and the “NLuc activity in Fraction 7 of the floatation assay, 'Drug' against 'No Drug'” value is 4 fold.
